Each block holds one molecule with its values, some of them ahead of it. Ends that are not written are not given here. * marks the point of attachment. Dansyl = CN(C)c1cccc2c(S(=O)(=O)*)cccc12
Tests used:
[1] = pH 2.5
Source text: Where the proteins forming the fibrils are unrelated the kinetics of fibril formation are likely to be different.

[2] = Solubility of peptide under labeling conditions; format: physicochemical
Method: TTR10-19 labeling with fluorescein. The N-terminal cysteine residue of TTR10-19 was the target for labeling by the thiol-reactive fluorophore fluorescein-5-maleimide (F5M; Molecular Probes, Eugene, Oreg.). TTR10-19 was resuspended at 1 mg/ml in H2O, and the cysteine residue reduced by the addition of a 10-fold molar excess of tris-(2-carboxyethyl) phosphine (TCEP; Molecular Probes, Eugene, Oreg.) and incubation for 1 h at room temperature. F5M in DMSO was added to the peptide solution to give a 10-fold molar excess of fluorophore over peptide in a final concentration of 10% DMSO. Under these conditions TTR10-19 was fully soluble. The mixture was incubated overnight at 4° C. to ensure maximum labeling. The labeling mixture was then applied to a disposable SepPak C-18 reverse-phase chromatography column (Waters, Milford, Mass.) and washed with H2O/CH3CN (90:10 v/v). TCEP and unreacted label eluted in the wash. The peptide was then eluted from the column with H2O/CH3CN (40:60 v/v), and a mixture of labeled and unlabelled peptide was detected by MALDI-TOF mass spectrometry. […]
TTR105-115 labeling with dansyl chloride. […] The peptide was then eluted from the column with H2O/CH3CN (50:50 v/v), and a mixture of labeled and unlabelled peptide was detected by MALDI-TOF mass spectrometry. […]

TTR105-115 [3] = molecular target: T1, TTR105-115 (human); assay: fluorescence anisotropy of labeled peptide co-assembled into fibrils (free peptide 0.02)
T1 construct: Unlabelled synthetic peptide, present as amyloid fibrils in the assays
T1 peptide: YTIAALLSPYS

Bovine insulin [4] = molecular target: T2, Bovine insulin (bovine, UniProt P01317 85-105; P01317 25-54); assay: as above
T2 construct: mature; Bought protein, assembled into amyloid fibrils at low pH and high temperature; also called insulin fibrils
T2 sequence (P01317 85-105 limits assumed, chain 1 of 2): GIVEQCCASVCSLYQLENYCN
T2 sequence (P01317 25-54 limits assumed, chain 2 of 2): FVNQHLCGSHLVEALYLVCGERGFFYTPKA

TTR10-19 [5] = molecular target: T3, TTR10-19 (human); assay: as above
T3 construct: Unlabelled synthetic peptide, present as amyloid fibrils in the assays; also called TTR10-19 fibrils
T3 peptide: CPLMVKVLDA

TTR105-115 [6] = molecular target: T1, TTR105-115; assay: fluorescence anisotropy of labeled peptide co-assembled into fibrils (free peptide 0.03)
Method: (§1) All anisotropy measurements were monitored over 10 sec to rule out photobleaching phenomena and then averaged.
(§2) Panel a: F5M-TTR₁₀₋₁₉ incorporated into TTR₁₀₋₁₉ fibrils (dashed line) is compared with F5M-TTR₁₀₋₁₉ (solid line) in 20 mM sodium phosphate buffer, pH 1.0 at a final labeled peptide concentration of 0.3 μM. Panel b: dansyl-TTR₁₀₅₋₁₁₅ incorporated into TTR₁₀₅₋₁₁₅ fibrils (dashed line) is compared with dansyl-TTR₁₀₅₋₁₁₅ (solid line) in water at a final labeled peptide concentration of 0.9 μM. The fluorescence spectra have been normalised. […] Fibrils were pelleted by centrifugation at 9500 g for 15 min, the pellet resuspended in H₂O pH 2 and deposited on a glass slide and imaged using fluorescence light microscopy. […] TTR₁₀₋₁₉ containing 1% (w/w) dansyl-TTR₁₀₅₋₁₁₅ was resuspended at a final total peptide concentration of 10 mg/ml in 10% CH₃CN adjusted to pH 2 with TFA. The sample was incubated at 37° C. for 10 days after which time the CD spectrum indicated the formation of significant O-sheet structure, and fibrils were observed by EM.

Bovine insulin [7] = molecular target: T2, Bovine insulin; assay: as above
Method: as §1, §2

TTR10-19 [8] = molecular target: T3, TTR10-19; assay: as above
Method: as §1, §2

time remaining soluble [1]: 48 h
solubility ([2]; 1 mg/ml in H2O, TCEP, F5M, final 10% DMSO): fully soluble
Molecule: CPLMVKVLDA [TTR10-19]

time remaining soluble [1]: 48 h
solubility ([2]; 1 mg/ml in H2O/CH3CN (80:20 v/v), dansyl chloride, 10% DMSO, pH 9.0): fully soluble
Molecule: YTIAALLSPYS [TTR105-115]

fluorescence anisotropy on incorporation into fibrils (TTR105-115 [3]): 0.13
fluorescence anisotropy on incorporation into fibrils (Bovine insulin [4]): 0.19
fluorescence anisotropy on incorporation into fibrils (TTR10-19 [5]): 0.16
B1: dansyl-TTR105-115 (peptide)
peptide: Dansyl-YTIAALLSPYS
notes: Synthetic peptide derived from human transthyretin

fluorescence anisotropy on incorporation into fibrils (TTR105-115 [6]): 0.22
fluorescence anisotropy on incorporation into fibrils (Bovine insulin [7]): 0.16
fluorescence anisotropy on incorporation into fibrils (TTR10-19 [8]): 0.17
B2: F5M-TTR10-19 (peptide)
peptide: C(fluorescein‑5‑maleimide)PLMVKVLDA
notes: Synthetic peptide derived from human transthyretin; also called fluorescein-5-maleimide labeled TTR10-19

Reference: patent US20040096852A1, “Mixed fibrils” (priority 2000, published 2004)
